Source: paper PMC4187121, “Flexible Enantioselectivity of Tryptophanase Attributable to Benzene Ring in Heterocyclic Moiety of D-Tryptophan” (Life : Open Access Journal, 2012)

Key:
[1] = tested on: T1, N[C@@H](Cc1c[nH]c2ccccc12)C(=O)O; experiment: L-tryptophan degradation by tryptophanase, kinetic and inhibition analysis (indole formation, Ehrlich reagent); type: biochemical, E. coli; details: other: L-tryptophan degradation, pH 8.3
T1 construct: purchased Sigma-Aldrich Co. (St. Louis, MO, USA)
Procedure: When tryptophanase degraded L-tryptophan, all reaction mixtures included 0.2 mM of pyridoxal 5′-phosphate and 0.23 μM of tryptophanase in 100 mM potassium phosphate buffer of pH 8.3. DAP concentrations were prepared to the required concentrations of 0, 0.6, 1.2, 1.9 or 3.1 M. L-tryptophan. The reaction mixture was prepared to a concentration of 98, 108, 128, 137, 147, 167, 196, 225, 245, 294, 343, 392, 490, 680 or 980μM for kinetic analyses. Reactions were performed at 37 °C for 30 min in a Dry Thermo Unit DTU-1B (Taitec, Tokyo, Japan). Although D-tryptophan in addition to L-tryptophan was also degraded into indole in the presence of DAP, an indole production amount from D-tryptophan was neglected at this reaction temperature and time because the catalytic efficiency for D-tryptophan was 0.3% of that for L-tryptophan. On the other hand, the reaction condition of D-tryptophan degradation differed in several ways from that of L-tryptophan degradation. Each concentration of pyridoxal 5′-phosphate and tryptophanase was 1.2 mM and 0.92μM, and additionally reaction temperature and time was 55 °C and 2 h, respectively. All the other reaction conditions were the same as in the L-tryptophan degradation.
The total volume of the reaction mixture was 2 mL per tube. The reaction was stopped by adding 2 mL of n-butanol, which was vigorously mixed and then immediately centrifuged at approximately 1,000 G for 10 min. After centrifugation, the reaction mixture was separated into two layers of butanol and aqueous solutions in which indole was equally distributed. The supernatant butanol layer was extracted to be mixed with an equal volume of Ehrlich reagent, then colored red at 60 °C for 30 min in Dry Thermo Unit. […] Tryptophanase activity was assayed in triplicate at the same substrate concentration and then averaged. Initial velocity was computed based on the averaged value.
(§1) Initial velocities were defined by indole that formed within 1 minute after 1 mg of tryptophanase was added. Then the reciprocal of (initial velocity/[E] (enzyme concentration)) (ordinate) versus the reciprocal of substrate concentration (abscissa) was drawn for each concentration of L- or D-tryptophan. These double-reciprocal plots were drawn based on the least squares method to calculate kinetic parameters. Kcatwas determined from the reciprocal of the intercepts of these double-reciprocal plots, and the Michaelis constant Km from substrate concentration at 1/v = 0 in the absence of inhibitor. In noncompetitive inhibition, two inhibition constants of Ki (=[E][I]/[EI], E: enzyme; I: inhibitor; EI: enzyme-inhibitor complex) and Ki' (=[ES][I]/[ESI], ES: enzyme-substrate complex; ESI: enzyme-substrate-inhibitor complex) were determined from the slopes and from the intercepts, respectively. In the mixed type inhibition, Ki and Ki' were determined from x and y coordinates of the fixed point in the second quadrant.

[2] = tested on: T2, N[C@H](Cc1c[nH]c2ccccc12)C(=O)O; experiment: D-tryptophan degradation by tryptophanase in the presence of 3.1 M DAP, kinetic and inhibition analysis; type: biochemical, E. coli; details: other: 3.1 M DAP, 55 °C, pH 8.3
T2 construct: purchased Sigma-Aldrich Co. (St. Louis, MO, USA)
Procedure: When tryptophanase degraded L-tryptophan, all reaction mixtures included 0.2 mM of pyridoxal 5′-phosphate and 0.23 μM of tryptophanase in 100 mM potassium phosphate buffer of pH 8.3. DAP concentrations were prepared to the required concentrations of 0, 0.6, 1.2, 1.9 or 3.1 M. L-tryptophan. The reaction mixture was prepared to a concentration of 98, 108, 128, 137, 147, 167, 196, 225, 245, 294, 343, 392, 490, 680 or 980μM for kinetic analyses. Reactions were performed at 37 °C for 30 min in a Dry Thermo Unit DTU-1B (Taitec, Tokyo, Japan). […]
as §1, with “Then the reciprocal of (initial velocity/[E] (enzyme concentration)) (ordinate) versus the reciprocal of substrate concentration (abscissa) was drawn for each concentration of L- or D-tryptophan. These double-reciprocal plots were drawn based on the least squares method to calculate kinetic parameters.” left out

tryptophanase (Escherichia coli K-12)
Km ([1]; DAP 0 M): 0.3 mM | kcat ([1]; DAP 0 M): 0.4 s⁻¹ | kcat/Km ([1]; DAP 0 M): 1300 M⁻¹ s⁻¹ | Km ([1]; DAP 0.6 M): 0.2 mM | kcat ([1]; DAP 0.6 M): 0.18 s⁻¹ | kcat/Km ([1]; DAP 0.6 M): 900 M⁻¹ s⁻¹ | Km ([1]; DAP 1.2 M): 0.2 mM | kcat ([1]; DAP 1.2 M): 0.15 s⁻¹ | kcat/Km ([1]; DAP 1.2 M): 800 M⁻¹ s⁻¹ | Km ([1]; DAP 1.9 M): 0.2 mM | kcat ([1]; DAP 1.9 M): 0.11 s⁻¹ | kcat/Km ([1]; DAP 1.9 M): 600 M⁻¹ s⁻¹ | Km ([1]; DAP 3.1 M): 0.2 mM | kcat ([1]; DAP 3.1 M): 0.07 s⁻¹ | kcat/Km ([1]; DAP 3.1 M): 400 M⁻¹ s⁻¹ | Km [2]: 0.6 mM | kcat [2]: 0.07 s⁻¹
